We go through two molecules from patent US20150290289, “METHOD OF PROMOTING WOUND HEALING” (Agency for Science, Technology and Research, published 2015).

The target of data set [1] is T1, KSRP (KHSRP) (UniProt Q92945 Q92945:2-711).
T1 sequence: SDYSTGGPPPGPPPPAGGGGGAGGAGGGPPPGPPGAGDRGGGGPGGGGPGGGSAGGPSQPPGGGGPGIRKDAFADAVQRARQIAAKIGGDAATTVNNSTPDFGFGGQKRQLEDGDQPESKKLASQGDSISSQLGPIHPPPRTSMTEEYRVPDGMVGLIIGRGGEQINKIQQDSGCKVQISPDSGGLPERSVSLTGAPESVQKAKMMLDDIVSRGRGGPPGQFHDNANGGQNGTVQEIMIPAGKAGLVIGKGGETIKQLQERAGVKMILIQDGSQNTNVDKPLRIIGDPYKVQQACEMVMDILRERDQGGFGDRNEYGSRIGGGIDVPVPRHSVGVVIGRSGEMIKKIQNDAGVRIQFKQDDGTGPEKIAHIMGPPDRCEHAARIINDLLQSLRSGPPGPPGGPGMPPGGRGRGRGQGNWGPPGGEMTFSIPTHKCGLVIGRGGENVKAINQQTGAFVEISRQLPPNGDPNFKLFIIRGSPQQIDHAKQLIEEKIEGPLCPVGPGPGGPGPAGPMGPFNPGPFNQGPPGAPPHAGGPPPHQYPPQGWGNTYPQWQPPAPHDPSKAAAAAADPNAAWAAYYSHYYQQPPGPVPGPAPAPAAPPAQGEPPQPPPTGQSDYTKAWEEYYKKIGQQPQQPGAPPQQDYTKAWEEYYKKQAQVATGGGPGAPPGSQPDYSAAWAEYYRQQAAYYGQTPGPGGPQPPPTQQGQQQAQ
Put plainly: EMSA; 0.5 uM KSRP, 5 mM MgCl2, 50 mM KCl, yeast tRNA, pH 7.4, room temperature. As to conditions: tags: recombinant, Origene; label: 32P-UTP; hairpin. As to the method: (§1) The pre-miR-198 substrate for gel retardation assay was prepared as described above. Pre-miR-198 transcripts with mutated terminal loop and stem sequences (FIG. 11B) were generated by mutating the parental plasmid (pBSKS) constructs with Quickchange site directed mutagenesis Kit (Stratagene). Recombinant KSRP protein (0.5 μM) was incubated with the wild type or mutant pre-miR-198 transcripts in 20 μl of reaction buffer containing 30 mM Tris HCl, pH 7.4, 5 mM MgCl₂, 50 mM KCl, 0.5 mM DTT, 40 u/ml of RNaseOUT, 250 μg/ml of yeast tRNA and 10% glycerol. After 30 min at room temperature, reaction products were resolved through 6% native polyacrylamide gel electrophoresis. Gel was dried and the protein RNA complex and unbound RNA were visualized by phosphorimaging.
(A gel shift assay detects complexes by their altered migration in electrophoresis.)

In data set [2] the target is T1, KSRP (KHSRP). As to the kind of experiment: EMSA; binding abrogated; 0.5 uM KSRP. Conditions: tags: recombinant, Origene; label: 32P-UTP; hairpin. The procedure:
as §1

B1: pre-miR-198 wild type (ssRNA)
RNA: UCAUUGGUCCAGAGGGGAGAUAGGUUCCUGUGAUUUUUCCUUCUUCUCUAUAGAAUAAAUGA
B1: the binding result with KSRP (KHSRP) [1] was “binds”.

B2: pre-miR-198 Mut-1 (ssRNA)
RNA: UCAUUGGUCCAGAGGGGAGAUAGGUUCCUCUCAUUUUUCCUUCUUCUCUAUAGAAUAAAUGA
modifications: [NONE]
B2: in the data set with KSRP (KHSRP) [2], the binding result is “no binding”.
